The results in this text go back to patent US20090104207A1.

The test deals with E1s (hepatitis C virus). Put plainly: coating ELISA, E1s at 0.5 µg/ml, hybridoma supernatant.

4G2 (antibody) displayed an O.D. (450-595 nm) of over 2 O.D.
